Fewer inactive variants are shown than the library holds.
B1: TPR 5TU (parent)
chain: GGAUCUUCUCGAUCUAACAAAAAAGACAAAUCUGCCACAAAGCUUGAGAGCAUCUUCGGAUGCAGAGGCGGCAGCCUUCGGUGGCGCGAUAGCGCCAACGUUCUCAACUAUGACACGCAAAACGCGUGCUCCGUUGAAUGGAGUUUAUCAUG

Variants of: B1
Assay: polymerase ribozyme fitness, log enrichment relative to wild type (log ratio); higher = more active; in vitro selection for triplet polymerase activity
How it was run: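 Genotype fitness is the logarithm of its enrichment divided by wild-type enrichment, using inverse-variance-weighted averages of replicates. That logarithm is base 2. Enrichment was measured by Illumina sequencing of input and output libraries from one triplicate in vitro selection round, with frozen incubation at −7 °C, on PCR-built, transcribed mutant libraries of each subunit of a heterodimeric triplet polymerase ribozyme, retaining genotypes with ≥10 input reads and ≥1 read per output.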
With GGAUCUUCUCGAUCUAACAAAAAAGACAAAUCUGCCACAAAGCUUGAGAGCAUCUUCGGAUGCAGAGGCGGCGGCCUUCGGUGGCGCGAUAGCGCCAACGCUCUCAACUAUGACACGCAAAACGCGUGCUCCGUUGAAUGGAGUUUAUCAUG the “polymerase ribozyme fitness (log ratio)” value was 0.659.
In the case of GGAUCUUCUCGAUCUAACAAAAAAGACAAAUCUGCCACAAAGCUUGAGAGCAUCUUCGGAUGCAGAGGCGGCGGCCUUCUGUGGCGCGAUAGCUCCAACGUCCUCAACUAUGACACGCAAAACGCGCGCUCCGUUGAAUGGAGUUUAUCAUG, the “polymerase ribozyme fitness (log ratio)” value is reported as at most -4.2.
With GGAUCUUCUCGAUCUAACAAAAAAGACAAAUCUGCCACAAAGCUUGAGAGCAUCUUCGGAUGCAGAGGCGGCGGCCUUCGGUGGCGCGAUAGCGCCAACGUUCUCAACUAUGACACGCAAAACGCGUGCUCCGUUGAAUGGAAUUUAUCAUG the “polymerase ribozyme fitness (log ratio)” value was -0.82.
For GGAUCUUCUCGAUCUAACAAAAAAGACAAAUCUGCCACAAAGCUUGAGAGCAUCUUCGGAUGCAGAGGCGGCGGCCUUCGGUCGCGCGAUAGCGCCAACGUUCUCAACUAUGACACGCAAAACGCGUGCUCCGUUGAAUGGAGUUUAUCAUG, the “polymerase ribozyme fitness (log ratio)” value was -2.56.
With GGAUCUUCUCGAUCUAACAAAAAAGACAAAUCUGCCACAAAGCUUGAGAGCAUCUUCGGAUGCAGAGGCGGCGGCCUUCGGUGGCGCGAUAGCGCCAACGUUCUCAACUAUGACACGCAAAACGCGUGCUCCGCUGAAUGGAGUUUAUCAUG the “polymerase ribozyme fitness (log ratio)” value was 0.53.
For GGAUCUUCUCGAUCUAACAAAAAAGACAAAUCUGCCACAAAGCUUGAGAGCAUCUUCGGAUGCAGAGGCGGCCGCCUUCGGUGGCGCGAUAGCGCCAACGUUCUCAACUAUGACACGCAAAACGCGUGCUCCGUUGAAUGAAGUUUAUCAUG, the “polymerase ribozyme fitness (log ratio)” value was -3.8.
With GGAUCUUCUCGAUCUAACAAAAAAGACAAAUCUGCCACAAAGCUUGAGAGCAUCUUCGGAUGCAGAGGCGGCCGCCUUCGGUGGCGCGAUAGGGCCAACGUUCUCAACUAUGACACGCAAAACGCGUGCUCCGUUGAAUGGAGUUUAUCAUG the “polymerase ribozyme fitness (log ratio)” value was at most -4.2.
With GGAUCUUCUCGAUCUAACAAAAAAGACAAAUCUGCCACAAAGCUUGAGAGCAUCUUCGGAUGCAGAGGCGGCCGCCUUCGGUGGCGCGAUACCGCCAACGUUCUCAACUAUGACACGCAAAACGCGUGCUCCGUUGAAUGGAGUUUAUCAUG the “polymerase ribozyme fitness (log ratio)” value was -3.64.
For GGAUCUUCUCGAUCUAACAAAAAAGACAAAUCUGCCACAAAGCUUGAGAGCAUCUUCGGAUGCAGAGGCGGCGGCCUUCGGUGGCGCGAUAGCGCUAACGUUCUCAACUAUGACACGCAAAACGCGUGCUCCGUUGAAUGGAGUUUAUCAUG, the “polymerase ribozyme fitness (log ratio)” value was -0.103.
In the case of GGAUCUUCUCGAUCUAACAAAAAAGACAAAUCUGCCACAAAGCUUGAGAGCAUCUUCGGAUGCAGAGGCGGCGGCCUUCGGUGGCGCGAUAGCGCCAACGUUCUCAACUAUGACACGCAAAUCGCUUGCUCCGUUGAAUGGAGUUUAUCAUG, the “polymerase ribozyme fitness (log ratio)” value is reported as -0.405.
For GGAUCUUCUCGAUCUAACAAAAAAGACAAAUCUGCCACAAAGCUUGAGAGCAUCUUCGGAUGCAGAGGCGGCGGCCUUCGGUGGCACGAUAGCGCCAUCGUUCUCAACUAUGACACUCAAAACGCGUGCUCCGUUGAAUGGAGUUUAUUAUG, the “polymerase ribozyme fitness (log ratio)” value was -4.18.
For GGAUCUUCUCGAUCUAACAAAAAAGACAAAUCUGCCACAAAGCUUGAGAGCAUCUUCGGAUGCAGAGGCGGCGGCCUUCGGUGGCGCGAUAGCACCAACGUUCUCAACUAUGACACGCAAAACGCGUGCUCCGUUGAAUGGAGUUUACCAUG, the “polymerase ribozyme fitness (log ratio)” value was -3.66.
In the case of GGAUCUUCUCGAUCUAACAAAAAAGACAAAUCUGCCACAAAGCUUGAGAGCAUCUUCGGAUGCAGAGGCGGCGGCCUUCGGUGGCGCGAUAGCGCCAACGUUCUCAACUAUGACACGCAAAACGCGUGCUCCGUUGAAUGGGGUUUAUCAUG, the “polymerase ribozyme fitness (log ratio)” value is reported as -1.38.
With GGAUCUUCUCGAUCUAACAAAAAAGACAAAUCUGCCACAAAGCUUGAGAGCAUCUUCGGAUGCAGAGGCGGCCGCCCUCGGUGGCGCGAUAGUGCCAACGUUCUCAACUAUGACACGCAAAACGCGUGCUCCGUUGAAUGGAGUUUAUCAUG the “polymerase ribozyme fitness (log ratio)” value was at most -4.2.
In the case of GGAUCUUCUCGAUCUAACAAAAAAGACAAAUCUGCCACAAAGCUUGAGAGCAUCUUCGGAUGCAGAGGCGGCGGCCUUCGGUGGCGCGAUUGCGCCAACGUUCUCAACUAUGACACGCAAAACGCGUGCUCCGUUGAAUGGAGUUUAUCAUG, the “polymerase ribozyme fitness (log ratio)” value is reported as at most -4.2.
For GGAUCUUCUCGAUCUAACAAAAAAGACAAAUCUGCCACAAAGCUUGAGAGCAUCUUCGGAUGCAGAGGCGGCGGCCUUCGGUGGCGCGAUAGCGCCAGCGUUCUCAACUAUGACACGCAAAACGCGUGCUCCGUUGAAUGGAGUUUAUCAUG, the “polymerase ribozyme fitness (log ratio)” value was 0.461.
With GGAUCUUCUCGAUCUAACAAAAAAGACAAAUCUGCCACAAAGCUUGAGAGCAUCUUCGGAUGCAGAGGCGGCGGCCUUCGGUGGCGCGAUAGCGCCAACGUUCUCAACUAUGACACGCAAAACGCGUGCUCCGUUGAAUGGAGUUUAUCAUG the “polymerase ribozyme fitness (log ratio)” value was 0.127.
For GGAUCUUCUCGAUCUAACAAAAAAGACAAAUCUGCCACAAAGCUUGAGAGCAUCUUCGGAUGCAGAGGCGGCUGCCUUCGGUGGCGCGAUAGCGCCAACGUUCUCAACUAUGACACGCAAAACGCGUGCUCCGUUGAAUGGAGUUUAUCAUG, the “polymerase ribozyme fitness (log ratio)” value was -0.424.
In the case of GGAUCUUCUCGAUCUAACAAAAAAGACAAAUCUGCCACAAAGCUUGAGAGCAUCUUCGGAUGCAGAGGCGGCUGCCUUCGGUGGCGCGAUAGCGCCGACGUUCUCAACUAUGACACGCAAAACGCGUGCGCCGUUGAAUGGAGUUUAUCAUG, the “polymerase ribozyme fitness (log ratio)” value is reported as at most -4.2.
In the case of GGAUCUUCUCGAUCUAACAAAAAAGACAAAUCUGCCACAAAGCUUGAGAGCAUCUUCGGAUGCAGAGGCGGCCGCCUUCGGUGGCGCGAUAGCGUCAACGUUCUCAACUAUGACACGCAAAACGCGUGCUCCGUUGAAUGGAGUUUAUCAUG, the “polymerase ribozyme fitness (log ratio)” value is reported as -2.49.
For GGAUCUUCUCGAUCUAACAAAAAAGACAAAUCUGCCACAAAGCUUGAGAGCAUCUUCGGAUGCAGAGGCGGCGGCCUUCGGUGGCGCGAUAGCGCCAGCGUUCUCAACUAUGACACGCAAAACGCGUGCUCCGUUGAAUGGAGUUGAUCAUG, the “polymerase ribozyme fitness (log ratio)” value was -1.02.
In the case of GGAUCUUCUCGAUCUAACAAAAAAGACAAAUCUGCCACAAAGCUUGAGAGCAUCUUCGGAUGCAGAGGCGGCGGCCGUCGGUGGCGCGAUAGCGCCAACGUUGUCAACUAUGACACGCAAAACGCGUGCUCCGUUUAAUGGAGUUUAUCAUG, the “polymerase ribozyme fitness (log ratio)” value is reported as at most -4.2.
For GGAUCUUCUCGAUCUAACAAAAAAGACAAAUCUGCCACAAAGCUUGAGAGCAUCUUCGGAUGCAGAGGCGGCGGCCUACGGUGGCGCGAUAGCGCCAACGUUCUCAACUAUGACAAGCAAAACGCGUGCUCCGUUGAGUGGAGUUUAUCAUG, the “polymerase ribozyme fitness (log ratio)” value was at most -4.2.
With GGAUCUUCUCGAUCUAACAAAAAAGACAAAUCUGCCACAAAGCUUGAGAGCAUCUUCGGAUGCAGAGGCGGCGGCCUUCGGUGGGGCGAUAGCGCCAACGUUCUCAACUAUGACACGCAAAACGCGUGCUCCGUUGAAUGGAGUUUAUCAUG the “polymerase ribozyme fitness (log ratio)” value was -1.1.
For GGAUCUUCUCGAUCUAACAAAAAAGACAAAUCUGCCACAAAGCUUGAGAGCAUCUUCGGAUGCAGAGGCGGCCGCCUUCGGUGGCGCGAUAACGCCAACGGUCUCAACUAUGACACGCAAAACGCGUGCUCCGUUGAAUGGAGUUUAUCAUG, the “polymerase ribozyme fitness (log ratio)” value was at most -4.2.
For GGAUCUUCUCGAUCUAACAAAAAAGACAAAUCUGCCACAAAGCUUGAGAGCAUCUUCGGAUGCAGAGGCGGCUGCCUUCGGUGGCGCGAUUGCGCCAACGUUCUCCACUAUGACACGCAAAACGCGUGCUCCGUUCAAUGGAGUUUAUCAUG, the “polymerase ribozyme fitness (log ratio)” value was at most -4.2.
In the case of GGAUCUUCUCGAUCUAACAAAAAAGACAAAUCUGCCACAAAGCUUGAGAGCAUCUUCGGAUGCAGAGGCGGCGGCCUUCGGUGGCGCGAUAGGGCCAACGUUCUCAACUAUGACACGCAAAACGCGUGCCCCGUUGAAUGGAGUUUAUCAUG, the “polymerase ribozyme fitness (log ratio)” value is reported as -3.08.
With GGAUCUUCUCGAUCUAACAAAAAAGACAAAUCUGCCACAAAGCUUGAGAGCAUCUUCGGAUGCAGAGGCGGCGGCCUUCGGUGGCGCGAUAGCGCCAACGUUCUCAACUAUGACACGCAAAACGCAUGCUCCGUUGAAUGGAGUUUAUCAUG the “polymerase ribozyme fitness (log ratio)” value was -0.377.
For GGAUCUUCUCGAUCUAACAAAAAAGACAAAUCUGCCACAAAGCUUGAGAGCAUCUUCGGAUGCAGAGGCGGCGGCCUUCGGUGGCGCGAUAGUGCCAACGUUCUCAACUAUGACACGCAAAACGCGUGCUCCGUUGAAUGGAGUUUAUCAUA, the “polymerase ribozyme fitness (log ratio)” value was -2.84.
For GGAUCUUCUCGAUCUAACAAAAAAGACAAAUCUGCCACAAAGCUUGAGAGCAUCUUCGGAUGCAGAGGCGGCGGCUUUCGGUGGCGCGAUAGCGCCAACGUUCUCAACUAUGACACGCAAAACGCGUGCUCCGUUGAAUGGUGUUUAUCAUG, the “polymerase ribozyme fitness (log ratio)” value was -2.11.
With GGAUCUUCUCGAUCUAACAAAAAAGACAAAUCUGCCACAAAGCUUGAGAGCAUCUUCGGAUGCAGAGGCGGCGGCCUUCGGUGGCGCGAUACCGCCAACGUUCUCAACUAUGACACGCAAAACGCGUGCUCCGUUGAAUGGAGUUUAUCAUG the “polymerase ribozyme fitness (log ratio)” value was -0.498.
For GGAUCUUCUCGAUCUAACAAAAAAGACAAAUCUGCCACAAAGCUUGAGAGCAUCUUCGGAUGCAGAGGCGGCGGCCUUCGGUGGAGCGAUAGCGCCAACGUUCUCAACUAUGACACGCAAAACACGUGCUCCGUUGAAUGGAGUUUAUCAUG, the “polymerase ribozyme fitness (log ratio)” value was -1.16.
For GGAUCUUCUCGAUCUAACAAAAAAGACAAAUCUGCCACAAAGCUUGAGAGCAUCUUCGGAUGCAGAGGCGGCGGCCUUCGGUGGCGCGAUAGCGGUAACGUUCUCAACUAUGACACGCAAAACUCGUGCUCCGUUGAAUGGAGUUUAUUAUA, the “polymerase ribozyme fitness (log ratio)” value was at most -4.2.
In the case of GGAUCUUCUCGAUCUAACAAAAAAGACAAAUCUGCCACAAAGCUUGAGAGCAUCUUCGGAUGCAGAGGCGGCGGCCUUCGGUGGUGCGAUAGCGCCAACGUGCUCAACUAUGACACGCAAAACACGUGCUCCGUUGAAUGGAGUUUAUCAUG, the “polymerase ribozyme fitness (log ratio)” value is reported as at most -4.2.
With GGAUCUUCUCGAUCUAACAAAAAAGACAAAUCUGCCACAAAGCUUGAGAGCAUCUUCGGAUGCAGAGGCGGCGGCCUUCGGUGGCGCGAUAGCGCCAACGUUCUCAACUAUGACACGCAAAACGCGUGCUCCGUUGAAUGAAGUUUAUCAUG the “polymerase ribozyme fitness (log ratio)” value was -0.252.
For GGAUCUUCUCGAUCUAACAAAAAAGACAAAUCUGCCACAAAGCUUGAGAGCAUCUUCGGAUGCAGAGGCGGCGGCCUUCGGUGGCGCGAUAGCGCCAACGUUCUCAACUAUGACACGCCAAACGCGUGCUCCGUUGAAUGGAGUUUAUCAUG, the “polymerase ribozyme fitness (log ratio)” value was -0.028.
In the case of GGAUCUUCUCGAUCUAACAAAAAAGACAAAUCUGCCACAAAGCUUGAGAGCAUCUUCGGAUGCAGAGGCGGCGGCCUUCGGUGGCGCGAUAACGCCAACGUUCUCAACUAUGACACGCAAAACGCGUGCUCUGUUGAAUGCAGUUUAUCAUG, the “polymerase ribozyme fitness (log ratio)” value is reported as at most -4.2.
For GGAUCUUCUCGAUCUAACAAAAAAGACAAAUCUGCCACAAAGCUUGAGAGCAUCUUCGGAUGCAGAGGCGGCGGCCUUCGGUGGCGCGAUAACGCCAAGGUUCUCAACUAUGACACGCAAAACGCGUGCUCCGUUGAAUGUAGUUUAUCAUG, the “polymerase ribozyme fitness (log ratio)” value was at most -4.2.
